Legend:
[1] = molecular target: EDAvidin (fusion protein between the extra domain A from fibronectin and streptavidin); test: SDS-PAGE of the sample not boiled against boiled; purified EDAvidin, nondenatured against denatured (boiled), Coomassie blue
biotinylated ovalbumin = biotinylated ovalbumin (UniProt P01012); test: SPR; ProteOn XPR36; OVA-biot covalently immobilised on a GLC chip (sulfo-NHS/EDC); EDAvidin in 2-fold dilutions from 100 nM, then (after regeneration with 2 μM biotin) streptavidin; PBS, 0.005% Tween 20, pH 7.4; 30 μL/min; referenced against nonbiotinylated OVA; Langmuir model
UniProt P01012, sequence (P01012 whole entry): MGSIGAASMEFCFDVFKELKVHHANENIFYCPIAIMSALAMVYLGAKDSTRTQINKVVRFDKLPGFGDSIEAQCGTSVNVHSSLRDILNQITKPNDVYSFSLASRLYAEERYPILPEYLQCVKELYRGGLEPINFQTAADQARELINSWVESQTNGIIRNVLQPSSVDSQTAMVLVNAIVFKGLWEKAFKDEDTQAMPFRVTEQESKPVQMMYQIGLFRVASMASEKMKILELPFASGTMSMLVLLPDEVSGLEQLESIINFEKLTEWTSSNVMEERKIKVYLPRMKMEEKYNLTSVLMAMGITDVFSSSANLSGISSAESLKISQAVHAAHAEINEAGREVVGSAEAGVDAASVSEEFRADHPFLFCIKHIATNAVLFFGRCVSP

EDAvidin (fusion protein between the extra domain A from fibronectin and streptavidin)
stoichiometry N [1]: 4
Kd (biotinylated ovalbumin): 0.023 pM

Reference: article PMC3777173
